Assay [1] deals with T1, 16 mer peptide 40.
T1 sequence (peptide, N-terminal biotin; C-terminal amide): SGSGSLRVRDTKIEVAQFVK
In words: 16 mer peptide ELISA.

Assay [2] concerns the target 16 mer peptide 41. The assay can be described thus: 16 mer peptide ELISA.

16 mer peptide 41, sequence (peptide, as listed by the source limits assumed): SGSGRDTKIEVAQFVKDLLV

B1: monoclonal antibody 6A1 (antibody, IgG1, V domains shown)
VH: EIQLQQSVAELVRPGASVRLSCTASGFYIKDTYMHWVIQRPEQGLEWIGTIDPANGNTKYVPKFQGKATITADTSSNTAYLRLSSLTSEDTAIYYCARSIYDDYHYDDYYAMDYWGQGTSVTVSS
VL: DVLMTQTPLSLPVSLGDQASISCRSSQNIVHINGNTYLEWYLQKPGQSPKLLIYKISDRFSGVPDRFSGSGSGTDFTLKISRVEAEDLGVYYCFQGSHVPWTFGGGTKLEIK
Regarding B1, the results for the absorbance at 490 nm in assay [1] and in assay [2] were 0.06 A490 and 0.058 A490, respectively.

The values are drawn from patent US20110243928A1.
